Laboratory results: paper PMC5536072

System: p53 (full-length human) (Homo sapiens)
Assay: AFM
Details: AFM on mica, 'physiological buffer conditions', binding buffer and temperature not given in the material, DNA stock in 10 mM Tris-HCl pH 7.6, 1 mM EDTA

Substance | Kd (logistic fit of site occupancy against p53 18.9-56.6 nM, DNA 1 ng/uL) [nM] | Kd (stated as approximately the same Kd as for 20,000 bp DNA, p53 18.9-56.6 nM) [nM]
20,000 bp DNA | 328 | 
5000 bp DNA |  | 328
